Results reported in patent US6787359B1, “Gene transfer methods” (Takara Shuzo Co., Ltd., priority 1998, dated 2004).

Test system: mouse leukemia L1210 cells
Assay: Gene transfer with PM5neo virus on coated plates, G418-resistant cells by WST-1 absorbance
Format: cell-based
Conditions: for Absorbance difference (450 nm-650 nm), G418-resistant cells: Experiment 2
Method: 50 μl of […] solution of H-271, H-296, C-274, CH-271, CH-296, ColV, human basic fibroblast growth factor (bFGF; Progen), tenascin (Gibco) or epidermal growth factor (EGF; Takara Shuzo), or 50 μl of 2% bovine serum albumin (BSA, Sigma) was added to each well of a 96-well non-treated microplate for cell culture (Falcon). The plate was allowed to stand at 4° C. overnight and then washed twice with phosphate buffered saline (PBS; Roman Kogyo). Alternatively, after the plate was treated as described above, 0.1 ml of 4 mg/ml solution of 1-ethyl-3-dimethylaminopropylcarbodiimide hydrochloride (Sigma) in sterile pure water was dispensed to each well. The reaction was allowed to proceed at 37° C. for 2 hours. The plate was washed extensively with pure water to prepare a carbodiimide-treated plate. These plates were stored at 4° C. until viral infection experiments were conducted.
10^4 mouse leukemia L1210 cells (ATCC CCL-219), which had been grown in RPMI 1640 medium (Bio Whittaker) supplemented with 10% FCS, 50 units/ml penicillin and 50 μg/ml streptomycin, and 50 μl of PM5neo virus supernatant (10^4 cfu/ml) were added to the well of the microplate. After the plate was incubated for 24 hours, the medium was changed to the same medium containing G418 (Gibco) at a final concentration of 0.75 mg/ml, and the plate was then incubated for additional 48 hours. G418-resistance cells were assessed according to the method as described in S. Kim et al. [Gene Therapy, 3:1018-1020 (1996)] with a partial modification in which color developed using Premix WST-1 reagent (Takara Shuzo) was measured as absorbance at 450 nm. […] Absorbance at 450 nm and 650 nm was then measured using a microplate reader, and the difference (450 nm-650 nm) was calculated. The value obtained using a plate coated with 2% BSA without carbodiimide treatment was defined as background.

B1: EGF: epidermal growth factor (Takara Shuzo) (protein, UniProt P01133 23-1207, looked up)
Pro-epidermal growth factor: PQHWSCPEGTLAGNGNSTCVGPAPFLIFSHGNSIFRIDTEGTNYEQLVVDAGVSVIMDFHYNEKRIYWVDLERQLLQRVFLNGSRQERVCNIEKNVSGMAINWINEEVIWSNQQEGIITVTDMKGNNSHILLSALKYPANVAVDPVERFIFWSSEVAGSLYRADLDGVGVKALLETSEKITAVSLDVLDKRLFWIQYNREGSNSLICSCDYDGGSVHISKHPTQHNLFAMSLFGDRIFYSTWKMKTIWIANKHTGKDMVRINLHSSFVPLGELKVVHPLAQPKAEDDTWEPEQKLCKLRKGNCSSTVCGQDLQSHLCMCAEGYALSRDRKYCEDVNECAFWNHGCTLGCKNTPGSYYCTCPVGFVLLPDGKRCHQLVSCPRNVSECSHDCVLTSEGPLCFCPEGSVLERDGKTCSGCSSPDNGGCSQLCVPLSPVSWECDCFPGYDLQLDEKSCAASGPQPFLLFANSQDIRHMHFDGTDYGTLLSQQMGMVYALDHDPVENKIYFAHTALKWIERANMDGSQRERLIEEGVDVPEGLAVDWIGRRFYWTDRGKSLIGRSDLNGKRSKIITKENISQPRGIAVHPMAKRLFWTDTGINPRIESSSLQGLGRLVIASSDLIWPSGITIDFLTDKLYWCDAKQSVIEMANLDGSKRRRLTQNDVGHPFAVAVFEDYVWFSDWAMPSVMRVNKRTGKDRVRLQGSMLKPSSLVVVHPLAKPGADPCLYQNGGCEHICKKRLGTAWCSCREGFMKASDGKTCLALDGHQLLAGGEVDLKNQVTPLDILSKTRVSEDNITESQHMLVAEIMVSDQDDCAPVGCSMYARCISEGEDATCQCLKGFAGDGKLCSDIDECEMGVPVCPPASSKCINTEGGYVCRCSEGYQGDGIHCLDIDECQLGEHSCGENASCTNTEGGYTCMCAGRLSEPGLICPDSTPPPHLREDDHHYSVRNSDSECPLSHDGYCLHDGVCMYIEALDKYACNCVVGYIGERCQYRDLKWWELRHAGHGQQQKVIVVAVCVVVLVMLLLLSLWGAHYYRTQKLLSKNPKNPYEESSRDVRSRRPADTEDGMSSCPQPWFVVIKEHQDLKNGGQPVAGEDGQAADGSMQPTSWRQEPQLCGMGTEQGCWIPVSSDKGSCPQVMERSFHMPSYGTQTLEGGVEKPHSLLSANPLWQQRALDPPHQMELTQ
modifications: Pro-epidermal growth factor
In the case of B1, the “Absorbance difference (450 nm-650 nm), G418-resistant cells” value (plate treated with carbodiimide) is reported as 0.077 ± 0.038, the “Absorbance difference (450 nm-650 nm), G418-resistant cells” value (plate untreated) is reported as 0.030 ± 0.021 and the “Appearance of G418-resistant cells (in words)” value (carbodiimide treatment carried out) is reported as “increased”.
